Results published in article doi:10.1101/2021.06.06.446989.
Read-outs that look alike come from different tables or passages of the source.

How the values were obtained:
[1] = target: RXFP2F11, chimera of the LDLa and GDxxGWxxxF motif (Met1-Phe51) of RXFP2 and the remainder of RXFP1 (human); test: saturation binding of Europium-labelled ligand on cells
[2] = target: RXFP1, wild-type receptor expressed on HEK293T cells (human) (UniProt Q9HBX9); test: as above
[3] = target: RXFP1(1-72), RXFP1 LDLa module and its 32-residue linker (human); test: NMR titration
[4] = target: RXFP2(1-65)-ExLink2 (human); test: NMR titration
[5] = target: RXFP1(1-72), RXFP1 LDLa module and its 32-residue linker (human); test: 15N-CPMG relaxation dispersion NMR
[6] = target: RXFP1(1-72)-L7K/K17A (human); test: 15N-CPMG relaxation dispersion NMR
D42A-RXFP1(1-72) (human) = test: NMR titration
W46A-RXFP1(1-72) (human) = test: NMR titration
[7] = target: RXFP1(1-72), RXFP1 LDLa module and its 32-residue linker (human); test: NMR titration; remark: listed apart in the source
[8] = target: RXFP2(1-65), RXFP2 LDLa module and its 26-residue linker (human); test: NMR titration
[9] = target: RXFP2(1-65)-ExLink2 (human); test: NMR titration; remark: listed apart in the source

Chain of UniProt Q9HBX9 (Q9HBX9 whole entry): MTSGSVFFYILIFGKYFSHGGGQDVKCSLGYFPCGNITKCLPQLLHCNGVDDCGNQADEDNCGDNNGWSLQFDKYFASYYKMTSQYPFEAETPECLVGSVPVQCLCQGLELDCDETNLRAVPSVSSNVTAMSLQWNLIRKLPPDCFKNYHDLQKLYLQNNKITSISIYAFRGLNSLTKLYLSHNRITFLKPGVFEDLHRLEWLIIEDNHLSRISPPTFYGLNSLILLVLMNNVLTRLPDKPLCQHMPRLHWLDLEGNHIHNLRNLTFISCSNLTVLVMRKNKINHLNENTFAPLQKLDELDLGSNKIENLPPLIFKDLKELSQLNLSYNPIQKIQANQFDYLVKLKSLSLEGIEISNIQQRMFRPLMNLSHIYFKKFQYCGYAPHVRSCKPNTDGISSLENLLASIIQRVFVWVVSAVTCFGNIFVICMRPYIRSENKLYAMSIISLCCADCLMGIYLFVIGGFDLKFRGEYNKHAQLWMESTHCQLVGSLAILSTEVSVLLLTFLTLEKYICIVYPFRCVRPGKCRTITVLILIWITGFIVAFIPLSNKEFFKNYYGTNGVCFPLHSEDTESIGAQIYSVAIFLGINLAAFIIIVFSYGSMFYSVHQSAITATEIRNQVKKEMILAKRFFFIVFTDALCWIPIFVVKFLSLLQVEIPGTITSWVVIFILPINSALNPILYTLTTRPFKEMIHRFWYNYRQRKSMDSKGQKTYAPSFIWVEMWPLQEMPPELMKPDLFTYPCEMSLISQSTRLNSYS

Row | Substance | Kd [1] [µM] | Kd [2] [µM] | Kd [3] [µM] | Kd [4] [µM] | Kd [5] [µM] | Kd [6] [µM] | fold decrease in affinity against wild-type RXFP1(1-72) (D42A-RXFP1(1-72) (human)) [fold] | fold decrease in affinity against wild-type RXFP1(1-72) (W46A-RXFP1(1-72) (human)) [fold] | Kd [7] [µM] | Kd [8] [µM] | Kd [9] [µM]
1 | H2 relaxin, native recombinant (serelaxin), Europium-labelled for the binding assay (ligand) | > 0.02 | 0.0006 |  |  |  |  |  |  |  |  | 
2 | amidated H2 relaxin (both the A and B-chain C-termini amidated) (ligand) |  |  | 442 | 482 | 25 | 30 | 4 | 4 | 85 | 205 | 171
